From patent US12383572B2, “Administration of an anti-activin-a compound to a subject” (AMGEN INC., priority 2013, dated 2025) come the findings set out here.

In one assay the test system is Ang-2 mRNA. Briefly: Northern blot of Ang-2 mRNA in inh-KO tumors. The format is in vivo, mouse. Particulars: ovarian and testicular tumors, inh-KO mice. Here is the method: Total RNA was isolated from individual tissue samples after homogenization in Trizol (Invitrogen). A pool of 10 μg RNA for each group containing equal amounts of total RNA isolated from individual animals was subjected to Northern blot analysis. The northern probes used for βA and Ang-2 were generated by using RT-PCR (Phusion, Biolabs). βA primer set: 5′-CCCTTGCTTTGGCTGAGAGGA-3′ (SEQ ID NO: 294) and 5′-TC ACA GGT CGT CGT AGG TCG-3′ (SEQ ID NO: 295); Ang-2 primer set: 5′-TGT GCC GGG GAG AAG AG (SEQ ID NO: 296) and 5′-TACAGTAGTGGGTTGAGGTTC-3′ (SEQ ID NO: 297). To normalize the expression, northern blot membranes were re-probed with β-actin.

Assay [1] in a line: sActRIIB single dose, withdrawal and re-administration in female Inhα KO mice: body weight. The format is in vivo, mouse. Here is the method: (§1) Eleven-to-fourteen-week-old female Inhα KO mice with body weight from 19.41 to 26.82 grams were subcutaneously (SC) injected with either 30 mg/kg sActRIIB or PBS. Age-matched WT littermate control mice were injected with PBS and served as baseline controls. The study ended by necropsy 2 weeks after injections. Two cohorts of mice were used in the study. Eleven-to-thirteen-week-old female Inhα KO mice with body weight from 17.7 to 27.4 grams were SC injected with either 30 mg/kg sAcLRIIB or PBS. Age-matched WT littermate control mice were injected with PBS and served as baseline controls. The withdrawal lasted for 8 weeks. At the end of the withdrawal, the sActRIIB treated mice were divided by balanced body weight into 2 groups (Group 3 and Group 4).
(§2) Group 2 and Group 3 were euthanized to examine the ovarian tumors. Group 4 received another dose of 30 mg/kg sActRIIB and the mice were euthanized together with the WT mice 4 weeks later (total 12 weeks). Mouse body weights were recorded once per week up to 12 weeks. For necropsy, mice were euthanized in a CO2 chamber. Normal ovaries in WT mice and ovarian tumors in Inhα KO mice were collected and weighed. All results were expressed as the mean±standard error of the mean (SEM). Statistical significance of difference between groups was analyzed using Student's 2-tailed t-test on MS Excel 5.0 software. […]

Assay [2] relates to TOV-21G tumors (apoptosis). Briefly: Active caspase-3 immunostaining and TUNEL assay on TOV-21G tumor sections. The format is in vivo, human. Particulars: TOV-21G xenograft tumors. The method, then:
(§3) Zinc-formalin fixed paraffin tumor tissue sections of 4 μm in thickness were prepared. The sections were subjected to antigen retrieval by microwave 3 min in Unmask solution (Vector H-3300) followed by incubation in 10 μg/ml Proteinase-K for 20 min and in 1% H2O2 in dH2O for 10 min at room temperature. The sections were further incubated in 0.1% Tween-20 in PBS for 3 min to permeabilize the cell membrane and in goat serum for 30 min to block non-specific binding. The sections were then incubated at room temperature with specific primary antibody for 3 hours followed by incubation in biotinylated or fluorescently labeled secondary antibody. Substrate developed in Vector SG kit (SK-4700) or DAB and nuclear-counterstained in Vector Fast Red (H-3403) or in hematoxylin. The immunostained tissue sections were analyzed and photographed using a Nikon Eclipse 90i microscope equipped with DS-Ril camera. […]
Cell apoptosis in TOV-21G tumors was analyzed by measuring the amounts of fragmented DNA in the tumor sections using the DeadEnd Fluorometric TUNEL System following the manufacturer's recommended protocols (Promega, G3250). The fluorescein-12-dUTP-labeled DNA was visualized by Nikon fluorescence microscopy.

In assay [3] the test system is ovarian tumors in inh-KO mice. In words: Ovarian tumor mass by necropsy in female inh-KO mice. The format is in vivo, mouse. Particulars: 12-week-old female inh-KO mice, single injection 30 mg/kg SC, necropsy 14 days after. Here is the method:
Inh-KO mice. 12-week-old female and 8-week-old male inh-KO mice with fully established ovarian or testicular tumors received a single injection of PBS or sActRIIB (30 mg/kg, SC). As a control, age-matched wild-type littermates received a single injection of PBS. Ovarian and testicular organ weights were determined by necropsy 14 days after the injection.

Assay [4] is described as follows: TOV-21G xenograft, hu-sActRIIB-Fc alone or with 5-FU: body weight. The format is in vivo, mouse. Conditions: TOV-21G tumor-bearing athymic nude mice. The method, then:
(§4) In another experiment, athymic nude mice received TOV-21G xenografts in the abdominal flank. After 14 days, subcutaneous hu-sActRIIB-Fc was administered weekly alone or in combination with 5-FU.

For the next assay, the system named is TOV-21G xenografts. In words: TOV-21G xenograft in abdominal flank, hu-sActRIIB-Fc alone or with 5-FU: tumor growth. It counts as in vivo, human. Particulars: 52 days after tumor cell injection, versus vehicle-treated tumor-bearing group. The method, then: as §4
Another assay has as its system TOV-21G cancer cells. Briefly: In vitro proliferation assay (IncuCyte live cell imaging). The format is cell-based, human. Conditions: increasing concentrations. Here is the method:
In vitro growth rates of TOV-21G cancer cells were analyzed by using a real-time live cell imaging system (IncuCyte) following the manufacturer's recommended protocol.

A further assay has as its system E-cadherin. Briefly: E-cadherin Western blot and immunostaining in inh-KO ovarian tumors. It counts as in vivo, mouse. Conditions: inh-KO mice. The method, then:
Protein extracts were prepared from cell cultures or tissues in T-PER tissue protein extraction reagent (Pierce) containing a mixture of protease inhibitors (Roche). A pool of 50 μg total protein for each group containing equal amounts of protein extract isolated from individual animals was separated by NuPAGE 4-12% Bis-Tris gel (Invitrogen) and transferred to PVDF. The membranes were probed with primary antibodies against total Smad2, p-Smad2 or E-cadherin (1:1000; Cell Signaling), endoglin, osteopontin (1:500; R & D Systems), IGFBP-1, IGFBP-2 (1:500; Abcam) followed by HRP-conjugated secondary antibody (1:2000; Cell Signaling). The membranes were stripped and re-probed with antibody against α-tubulin (1:1000; Cell Signaling).
as §3, with “The sections were then incubated at room temperature with specific primary antibody for 3 hours followed by incubation in biotinylated or fluorescently labeled secondary antibody. Substrate developed in Vector SG kit (SK-4700) or DAB and nuclear-counterstained in Vector Fast Red (H-3403) or in hematoxylin.” left out

The nature of assay [5]: sActRIIB single dose in female Inhα KO mice: survival. The format is in vivo, mouse. Here is the method:
as §1, §2

B1: sActRIIB: extracellular domain of human activin type-2B receptor fused to IgG2 Fc; full length SEQ ID NO: 21 (Table 9) (protein, listed as Homo sapiens)
chain: ETRWCIYYNANWELERTNQSGLERCEGEQDKRLHCYASWRNSSGTIELVKKGCWLDDFNCYDRQECVATEENPQVYFCCCEGNFCNERFTHLPEAGGPEVTYEPPPTAPTGGGGSVECPPCPAPPVAGPSVFLFPPKPKDTLMISRTPEVTCVVVDVSHEDPEVQFNWYVDGVEVHNAKTKPREEQFNSTFRVVSVLTVVHQDWLNGKEYKCKVSNKGLPAPIEKTISKTKGQPREPQVYTLPPSREEMTKNQVSLTCLVKGFYPSDIAVEWESNGQPENNYKTTPPMLDSDGSFFLYSKLTVDKSRWQQGNVFSCSVMHEALHNHYTQKSLSLSPGK
In the case of B1, the “Ang-2 mRNA expression in tumors” value with Ang-2 mRNA is on record as “inhibited its overexpression”. Besides, the “body weight, first 4 weeks after single dose” value in [1] (30 mg/kg SC single dose) is “sustained weight gain in Inhα KO mice that exceeded the level of WT littermate control”. In addition, the “body weight after re-administration at week 8 (up to week 12)” value in assay [1] (second single dose 30 mg/kg) is reported as “stimulated further weight gain”. Further, the “active caspase-3 and DNA fragmentation (TUNEL)” value in assay [2] is “profound increases in active caspase-3 and DNA fragmentation”. In [3], the ovarian tumor mass result is “regressed rapidly to the sizes seen in the WT control mice”. The “body weight increase during the experiment” value in [4] is 26%. The tumor growth reduction with TOV-21G xenografts is 43%. The “TOV-21G cell proliferation in vitro” value with TOV-21G cancer cells was “no direct effect on TOV-21G cell proliferation in vitro”. Besides, the “E-cadherin immunoreactivity in ovarian sections” value with E-cadherin was “reappearance of distinctive E-cadherin immunoreactivity”. Also, the “E-cadherin protein in ovarian tumors (Western blot)” value with E-cadherin (single injection) was “dramatically restored the lost E-cadherin”. Further, in assay [5] (single dose 30 mg/kg SC), the “survival rate at week 8” value is given as 94%. Further, the “survival curves, sActRIIB vs. PBS” value in assay [5] (single dose, chi-square test) is listed as “significantly different”.
